Legend:
[1] = test system: human cord blood cells (CD34-positive cells); settings: with or without TPO treatment; single administration; cited from earlier work
[2] = test system: mouse bone marrow; settings: TPO administered to TPO-knockout mice; cited from earlier work
[3] = test system: human cord blood-derived CD34-positive cells; assay: Engraftment number of different human blood cell lineages in bone marrow of mice transplanted with human cord blood-derived hematopoietic stem cells (Example 1); assay type: in vivo, NOD.CB17-Prkdc<scid>/J mice
Source text: Engraftment of transplanted hematopoietic stem cells in the bone marrow is required in hematopoietic stem cell transplantation. The present invention provides agents which comprise an agonist for the TPO receptor (c-mpl) as an active ingredient for enhancing the engraftment of transplanted CD34-positive hematopoietic cells in the bone marrow. The engraftment of transplanted CD34-positive hematopoietic cells (CD34-positive hematopoietic stem cells and CD34-positive hematopoietic precursor cells) in the bone marrow can be promoted by administering the agents of the present invention. The presence or absence, or the degree of engraftment of transplanted CD34-positive hematopoietic cells in the bone marrow (the engraftment rate of transplanted CD34-positive hematopoietic cells in the bone marrow) can be assessed, for example, by determining the absolute number of human CD34-positive hematopoietic cells in the bone marrow of NOD/SCID mice to which human hematopoietic cells are transplanted. Human cells can be identified among the mouse bone marrow cells by using a fluorescent-labeled, human CD34-specific antibody for detection. Specifically, the engraftment rate of transplanted CD34-positive hematopoietic cells in the bone marrow can be determined by the following procedures. First, NOD.CB17-Prkdc/J mice, to which human cord blood-derived CD34-positive cells have been transplanted, are euthanized three weeks after transplantation. The right and left femurs are collected, and then their epiphyseal portions are removed by scissors. Bone marrow cells are flushed out using a 26G-needle syringe and collected. After washing with IMDM containing 2% FBS, 5 ml of erythrocyte lysis solution is added, and the mixture is allowed to stand for five minutes. The mixture is centrifuged and supernatant is removed. Then, the precipitate is suspended in 2 ml of IMDM containing 2% FBS. The suspension is filtered through a 70-μm membrane to prepare a bone marrow cell suspension (2 ml/two femurs for each mouse). The cell suspension is aliquoted into 100-μl samples, and the cells are stained for 15 minutes with a fluorescent-labeled, human CD34-specific antibody and PI (final concentration: 2 μg/ml). After washing, 50 μl of Flow-Count fluorescent particles are added, and the engraftment number of human CD34-positive cells is determined using the EPICS XL cell analyzer. The determination may be performed, for example, according to Application Note 5: “Determination of the absolute number of cells using Flow-Count” (Beckman Coulter, Inc.). Likewise, the absolute number of different human blood cell lineages in the bone marrow can be determined using a variety of detection antibodies. The absolute number of human cells contained in the two femurs is represented by the following formula:
Absolute number of human cells=determined value (cells/μl)×1/2(Flow-Count amount added (50)/sample amount added (100))×2000 (2 ml/two femurs/mouse)
Mice used were acclimatized six-week-old male NOD.CB17-Prkdc/J. After systemic irradiation with 3.0 Gy of X-ray, an anti-asialo-GM1 antibody was intraperitoneally administered to the mice once every ten days from the day of irradiation. 5×10^4 human cord blood-derived CD34-positive cells were transplanted to each mouse at the caudal vein one day after irradiation. From the day after transplantation, the sc(Fv)2 antibody of SEQ ID NO: 73 was administered every day for ten consecutive days, and after that, administration was conducted for five days followed by two days of break. The doses were: 0.25 mg/5 ml/kg in the morning, and 2 mg/5 ml/kg in the evening. The antibody was subcutaneously administered at eight-hour intervals, twice a day for three weeks in total (n=10). 20 mmol/l citric acid buffer containing 0.02% Tween 80 was administered as a vehicle in the same way as the sc(Fv)2 antibody of SEQ ID NO: 73. The bone marrow was collected after three weeks transplantation, and FACS analysis was performed using EPIX XL. […]

[4] = test system: human CFU-Meg colonies; assay: Number of human CFU-Meg colonies in bone marrow of mice transplanted with human cord blood-derived hematopoietic stem cells (Example 2); assay type: in vivo, NOD.CB17-Prkdc<scid>/J mice; settings: vs vehicle-administered group; s.c. 0.25 + 2 mg/kg per day, three weeks; bone marrow cells cultured 13 days in MegaCult-C; FIG. 2
Method: Mice used were acclimatized six-week-old male NOD.CB17-Prkdc/J. After systemic irradiation with 3.0 Gy of X-ray, an anti-asialo-GM1 antibody was intraperitoneally administered to the mice once every ten days from the day of irradiation. 5×10^4 human cord blood-derived CD34-positive cells were transplanted to each mouse at the caudal vein one day after irradiation. From the day after transplantation, the sc(Fv)2 antibody of SEQ ID NO: 73 was administered every day for ten consecutive days, and then after that, administration was conducted for five days followed by two days of break. The antibody was subcutaneously administered at 0.25 mg/5 ml/kg in the morning and 2 mg/5 ml/kg in the evening, at eight-hour intervals, twice a day for three weeks in total (n=10). 20 mmol/l citric acid buffer containing 0.02% Tween 80 was administered as a vehicle in the same way as the sc(Fv)2 antibody of SEQ ID NO: 73. Bone marrow cells were collected after three weeks transplantation. Bone marrow cells contained in the mouse femurs were cultured with the sc(Fv)2 antibody of SEQ ID NO: 73 for 13 days using MegaCult-C (StemCell Technologies). The number of human CFU-Meg colonies was determined by counting CD41-positive colonies containing 50 or more cells under a light microscope.

[5] = test system: human cord blood-derived CD34-positive cells; assay: Dose-dependent effect on engraftment number of different human blood cell lineages in bone marrow of transplanted mice (Example 3); assay type: in vivo, NOD.CB17-Prkdc<scid>/J mice; settings: high, medium, low dose s.c. for ten days, FIG. 3
Method: Mice used were acclimatized six-week-old male NOD.CB17-Prkdc/J. After systemic irradiation with 3.0 Gy of X-ray, an anti-asialo-GM1 antibody was intraperitoneally administered to the mice on the day of irradiation and eight days after irradiation. 5×10^4 human cord blood-derived CD34-positive cells were transplanted to each mouse at the caudal vein the day after irradiation. The sc(Fv)2 antibody of SEQ ID NO: 73 was administered every day for ten consecutive days from the day after the irradiation, according to the following three dosages (subcutaneous administration; n=9 for each group).
High-dose group (0.25 mg/kg in the morning, an eight-hour interval, and 2 mg/kg in the evening, per day)
Medium-dose group (0.05 mg/kg in the morning, an eight-hour interval, and 0.2 mg/kg in the evening, per day)
Low-dose group (0.01 mg/kg in the morning, an eight-hour interval, and 0.02 mg/kg in the evening, per day)
The dose was adjusted so that the minimum drug concentration in peripheral blood during the administration period is 50 ng/ml, 10 ng/ml, or 2 ng/ml in the high-, medium-, or low-dose group, respectively.
20 mmol/l sodium citrate/150 mM NaCl buffer (pH 6.5) containing 0.02% Tween 80 was administered as a vehicle in the same way as the sc(Fv)2 antibody of SEQ ID NO: 73. Bone marrow cells were collected after two weeks transplantation, and FACS analysis was performed. The absolute number of human cells was determined using Flow-Count (Beckman).

[6] = summary statement of the inventors' findings
[7] = vs vehicle group, s.c. 0.25 + 2 mg/kg per day, three weeks, FIG. 1
[8] = two weeks after transplantation

TPO: cytokine that promotes growth and differentiation of megakaryocytic lineage cells; ligand for c-mpl
frequencies of CD34 positive cells [1]: did not differ significantly | mouse bone marrow transplantation efficiency [2]: increased

B1: VB22B sc(Fv)2: agonistic minibody against the TPO receptor; amino acid sequence of SEQ ID NO: 14 (protein, listed as Mus musculus)
chain: MEWPLIFLFLLSGTAGVHSQVQLQQSGPELVKPGASVKISCKASGYAFTNSWMNWVKQRPGKGLEWIGRIYPGDGETIYNGKFRVKATLTADKSSSTAYMDISSLTSEDSAVYFCARGYDDYSFAYWGQGTLVTVSAGGGGSGGGGSGGGGSDIVMTQAAPSIPVTPGESVSISCRSSKSLLHSNGNTYLYWFLQRPGQSPQLLIYRMSNLASGVPDRFSGSGSGTAFTLRISRVEAEDVGVYYCMQHIEYPFTFGSGTKLEIKGGGGSGGGGSGGGGSQVQLQQSGPELVKPGASVKISCKASGYAFTNSWMNWVKQRPGKGLEWIGRIYPGDGETIYNGKFRVKATLTADKSSSTAYMDISSLTSEDSAVYFCARGYDDYSFAYWGQGTLVTVSAGGGGSGGGGSGGGGSDIVMTQAAPSIPVTPGESVSISCRSSKSLLHSNGNTYLYWFLQRPGQSPQLLIYRMSNLASGVPDRFSGSGSGTAFTLRISRVEAEDVGVYYCMQHIEYPFTFGSGTKLEIK
engraftment of transplanted human cord blood-derived hematopoietic stem cells (CD34-positive hematopoietic cells) in the bone marrow [3, 6]: enhanced the engraftment | growth of multilineage blood precursor cells [3, 6]: induced significant growth | human megakaryocyte-specific differentiation (increase of megakaryocytic cells) [3, 6]: induced human megakaryocyte-specific differentiation

B2: sc(Fv)2 antibody of SEQ ID NO: 73: humanized sc(Fv)2 antibody comprising the amino acid sequence of SEQ ID NO: 73; c-mpl agonist (protein, listed as Homo sapiens)
chain: MDWTWRFLFVVAAATGVQSQVQLVQSGPEVKKPGASVKVSCKASGYTFTNSWMNWVRQRPGKGLEWIGRIYPGDGETIYNGKFRVRVTITADESTSTAYMQLSSLRSEDTAVYYCARGYDDYSFAYWGQGTTVTVSSGGGGSGGGGSGGGGSDIVMTQSPLSLPVTPGEPASISCRSSKSLLHSNGNTYLYWFLQKPGQSPQLLIYRMSNLASGVPDRFSGSGSGTDFTLKISRVEAEDVGVYYCMQHIEYPFTFGQGTKLEIKGGGGSGGGGSGGGGSQVQLVQSGPEVKKPGASVKVSCKASGYTFTNSWMNWVRQRPGKGLEWIGRIYPGDGETIYNGKFRVRVTITADESTSTAYMQLSSLRSEDTAVYYCARGYDDYSFAYWGQGTTVTVSSGGGGSGGGGSGGGGSDIVMTQSPLSLPVTPGEPASISCRSSKSLLHSNGNTYLYWFLQKPGQSPQLLIYRMSNLASGVPDRFSGSGSGTDFTLKISRVEAEDVGVYYCMQHIEYPFTFGQGTKLEIK
number of human CD34-positive cells in right and left femurs ([3]; vs vehicle group, s.c. 0.25 mg/kg morning + 2 mg/kg evening, three weeks, bone marrow three weeks after transplantation, FIG. 1): statistically significantly increased | number of CD19-positive cells in right and left femurs [3, 7]: statistically significantly increased | number of CD33-positive cells in right and left femurs [3, 7]: statistically significantly increased | number of CD41-positive cells in right and left femurs [3, 7]: statistically significantly increased | number of CD45-positive cells in right and left femurs [3, 7]: statistically significantly increased | number of CFU-Meg colonies in the bone marrow [4]: statistically significantly increased | number of CD34-positive cells in right and left femurs ([5]; bone marrow two weeks after transplantation): increase in a dose-dependent manner | number of CD19-positive cells in right and left femurs [5, 8]: increase in a dose-dependent manner | number of CD33-positive cells in right and left femurs [5, 8]: increase in a dose-dependent manner | number of CD38-positive cells in right and left femurs [5, 8]: increase in a dose-dependent manner | number of CD41-positive cells in right and left femurs [5, 8]: increase in a dose-dependent manner | number of CD45-positive cells in right and left femurs [5, 8]: increase in a dose-dependent manner

Reference: patent publication US20100040600A1, “Agents for Promoting the Growth of Hematopoietic Stem Cells” (CHUGAI SEIYAKU KABUSHIKI KAISHA, priority 2006, published 2010)
